Source: the DeepSol protein solubility set

Test: soluble on expression in E. coli; label from the status in PepcDB or PDB records

Row | Sequence | soluble on expression in E. coli
1 | GSHMPNYDTSIDIEDIKKILPHRYPFLLVDKVIYMQPNKTIIGLKQVSTNEPFFNGHFPQKQIMPGVLQIEALAQLAGILCLKSDDSQKNNLFLFAGVDGVRWKKPVLPGDTLTMQANLISFKSSLGIAKLSGVGYVNGKVVINISEMTFALSK | soluble
2 | MLKLLIVDDAMFMRTMIKNIVKDSDFEVVAEAENGLEAVKKYDEVKPDIVTLDITMPEMDGLEALAQIMAKDPSAKVIMCSAMGQQGMVVDAIKKGAKDFIVKPFQADRVLEALEKAAK | not soluble
3 | NKDMSFVIRGNFTYSKNKIDNWEQIEQKYAYQNFSGWPYGIQRGYIALGLFRDEADINNSPIQTFGNYEAGDIKYKDVNGDGRIDIDDQVPLSYDNYPRLMYGFGGEFRYKNLTFNILFKGIGKKDFFYTSEDSGFGYYPFLYGETGNVLSIVANSSNRWIPASYSGDPSTENPNARFPRLSYGKNSNNTQKSTFWKANGQYLRLQEISVGYNLKLKAFSKIGVSSIDLQLVGQDLYVWDKIGGLWDPEQTTKNGRAYPIPATYSLQMYINF | not soluble
4 | MSLAEITDRDTALFESGIKLGALYHQFVGSPVNLSTAGSLEAAIRDSISLQPCVQSITVAIDREMVRGRINDFGYCELEGRMLGVEAVIRYGTAVVHVGMRYDAEMDYPMMSVQQIEQIGQIRQIEQDKQTEQIRQIRQTEVGEGHHHHHH | soluble
5 | MGSDKIHHHHHHMTFDANDVVRRLGARLKMRHLMLLLQIQQHGSLTRVAEHMASSQPAVTNALSELESMFGTPLFERTSRGMRPTALGSVVLERARAMLKDLDHLAREMEAVAAGHAAHLHIGVIPFISGQMLSAALKRLQSRMERRLTVTIHEGTSDQLLLQLKDHSVDLVIGRASSAIDLGQVSFEVLYQQQPRMIASRRLAAKLARTKLDWQKLHALDWILGAPHTPMREQVTDLFLSAGIAPPVPIVESYSSKLIGEMIASSDDAVSIVPADIAEEMVRIAGVAIVPYSLVWTLPPIALFTRAGESHAPTRDLLVQALREICRETYVEVPR | not soluble
6 | DIKMTQSPSSMYASLGERVTITCKASQDINSYLNWFQQKPGKSPKTLIYRTNRLVDGVPSRFSGSGSGQDYSLTISSLEYEDMGIYYCLQYDEFPYTFGSGTKLEIKRTVAAPSVFIFPPSDEQLKSGTASVVCLLNNFYPREAKVQWKVDNALQSGNSQESVTEQDSKDSTYSLSSTLTLSKADYEKHKVYACEVTHQGLSSPVTKSFNR | soluble
7 | MYSAPDFSNNDYKIIMSSQNMKDEKEELMDINKVSEQEMLARKVSKSYVSKIIEYREITGGFDKLEDMKRIKGIGNATYQKLSKVFKVASAPNKKMLNINSADDMTLKYYGLSKKEIKRIQKYLDKNDRITDNIEFKKIVNKKTYERLKDLINYDGGKRLEHHHHHH | soluble
8 | MTASSPNRARTSLAAYASAGPVSLPAGSTRTVASGTSSRTRSAYASRVTASRSSAKAARSAVRRSRLRSSSPSASSCLGRWLRLAGYSRVPVPPASRTAATVCVTARSPGGWSACRRVRRRGPNACLRGASDRVHPGCGDLKGVGSKHRYVSHRNTRGDGYTTMSDLSDTAQEVHDDLSEHVDATVDDVEARLEKLVSEYKVPVDEARRSVENHYLDEAGLDRDDLAGGGGNDTVEVEDVDEAEQWVDITAKVVELWEPRSDSVGQVGLLGDPTGTIKFTKWAKSDLETLDEGQVYRLGNVVTDEYQGRYSVKLNKTTSIEAVDEEFEVGDNEDEVAGALVDVQSGSGLIKRCPEEDCTRVLQNGRCNEHGEGDGEFDLRIKGVLDDGTDVHEVIFDEEATEALTGIGLEEAKQMAKDALDTTVVADEMRATILGKYYRVTGPTFGRYVLANDTELLTTRPDTESVLIRARSILEHHHHHH | not soluble
9 | MAHHHHHHMFNYRREVLLDLWRKMPEAAACETVAPPEAVKGEEKRQQSVVKTQLDWLSEELKLSSSIIQSDYKVYAAFVHRRWVFMQLRRLAESALGNVGKRSKPAAPAGCQLGECAAAGEFDLPEEVLFWAKALLKEKRQGDALLAMDERNFHAWEFRRWVMYQLGQMEDLFVQSSIQFGPAVVGIKEREFASYMNGSAKSDRPRDLFFTPTEVKELNFTSAAVRRNFSNYSAWHQRGFIMQGALRRLQQRQWREEEADNNLRDGMLSQAWGQLEEDLTLLTTAIYCDPLDQSAWYYAKFLIHASKQLTALPFASTAVPIDITAKLDEVCLDLVGEERRLGEDMETYWPYLHLATSLLTSIKKSNDGNSSDVISDRQSALKLAREVWAALQPQGRHVNGDDDCIKCLQELCAHLTTADPLRAGMYKYFLSEVTTA | not soluble
10 | MLCHTLISSFNNHIWRFLIMENKMNDNRVPRERVAILIDSGCDVTEELIRQYNMKLLRLHVIYPEKDYSDDLDISPQTVYERFPGEIPHTSTPSPQEVKDMADELKREGYTHVLAFAISSGLSGTYNTMCSVLNEEEELTSFVLDTRNISFGSGVLAVWAAQKLEEGMPYEELVRLLPGKVQDSKILYYMDTLTYLQKGGRIGLVTSIVGNILNLKPIISCNCEGVYYTVAKIRGSKQGMTKLLAEAKDFAGDGPVWFSLLNGNAAAASNEMLKRITEALPEGKHLLSKQIAASLAVHTGPGLLGIGILKNP | not soluble
11 | MAHHHHHHMVSDPSFCKKAPSSDLLGSNGRKVPPSFIAPPSSDVFLTSRRKTSFRNKSALTCLGKDVMSVSYGCGMRFRKAVRSGLSVFREAITLTDGGRHEGSHSRTSDSRPPQLSKRSMREIRRRIISPSYLEITSRTSTASSSTLRYIRLDFFKKTRRR | not soluble
12 | MVPAAENLSPIPASIDTNDIPLIANDLKLLETQAKLINILQGVPFYLPVNLTKIESLLETLTMGVSNTVDLYFHDNEVRKEWKDTLNFINTIVYTNFFLFVQNESSLSMAVQHSSNNNKTSNSERCAKDLMKIISNMHIFYSITFNFIFPIKSIKSFSSGNNRFHSNGKEFLFANHFIEILQNFIAITFAIFQRCEVILYDEFYKNLSNEEINVQLLLIHDKILEILKKIEIIVSFLRDEMNSNGSFKSIKGFNKVLNLIKYMLRFSKKKQNFARNSDNNNVTDYSQSAKNKNVLLKFPVSELNRIYLKFKEISDFLMEREVVQRSIIIDKDLESDNLGITTANFNDFYDAFYN | soluble
13 | MSLNNRSETMKYKRIVFKVGTSSLTNEDGSLSRSKVKDITQQLAMLHEAGHELILVSSGAIAAGFGALGFKKRPTKIADKQASAAVGQGLLLEEYTTNLLLRQIVSAQILLTQDDFVDKRRYKNAHQALSVLLNRGAIPIINENDSVVIDELKVGDNDTLSAQVAAMVQADLLVFLTDVDGLYTGNPNSDPRAKRLERIETINREIIDMAGGAGSSNGTGGMLTKIKAATIATESGVPVYICSSLKSDSMIEAAEETEDGSYFVAQEKGLRTQKQWLAFYAQSQGSIWVDKGAAEALSQHGKSLLLSGIVEAEGVFSYGDIVTVFDKESGKSLGKGRVQFGASALEDILRSQKAKGVLIYRDDWISITPEIQLLFTEFEGHHHHHH | soluble
14 | MNFQKLLKEAQKAQKKAAEVQERLERMTVVGSAQGLVEVEANGHGKILALRLKPEALKAFQDDPEGLEDLLLVAIQDAQTKAHELSEKEMAKELGGVGQMLGKLF | soluble
15 | VPSPDDTEVTVARLTSMSSAEEPLTAGRDGLLSLLRNGQLPSRGAKAPQRERYQRIVAAAMELASEGGYDAVQMRAIADRAGVALGTVYRYFPSKNHMLVMGLLMVFEGMRSRFEDVAIPGDTPSERILFVLRKNTEVLEKDRPRYEALVRAFMFADASASAELDAFGALMTEMFAKTIGVEQISDDQLNAIRVIGDVWMSSLVSWVAGRISVDEVMAHLGLAVRLVFRRLGG | not soluble
16 | MSLESIKVGMIGYKFMGKAHSHAYRDLPMFFPDHLRPEMKVICGRNPEGVAQAASQYGWEEYTTNWKDLIRRDDIDLIDINAPSDVHKEITLAAAQAGKHIFCEKPLALTLQDSRHMLEAVEAAGVKHMVGFNYRFTPAVLLAKKLIAEGRLGDIYHFRAWFLQDWIVAPDFPLVWRLQKDIAGSGAHGDLGAHLIDMAHFLIGDITEVIGMNETFIKERPLPTEMTGLSGRGSNDHTVPKGPVTVDDATLFMARFANGALGSFEATRFATGHRSTNSFEINGSKGSVIFDFERLNELQVYFTDDQDDVQGFRRVLATDGAHAYSDRWWPAGHTIGYEHTFIHEIAELMESLQEGRQPVPNFKDGVKCQQVLEAVDLSIAKREWIQVSEGHHHHHH | soluble
17 | SNAMLTFYEYPKCSTCRRAKAELDDLAWDYDAIDIKKNPPAASLIRNWLENSGLELKKFFNTSGQSYRALGLKDKLHQLSLDEAANLLASDGMLIKRPLLVKEGKIVQIGYRTAYEDLDF | soluble
18 | MAHHHHHHMFRFCGRRLVARTLPLLADYQELPEAFEFMEHKVADKDIHSAYENMETLRLTVTRQDEFLFKETPVKCVTIVGVNGECGVYPGHAYEITQLTPAPLTVEMPDGTVKKFFTSGGFAHINNEGSCDINCVECIPLTELDVDAAEKALAQQQSALNSAHDDKARAVIEIRIGVLESVIQSLKHA | not soluble
19 | MGSDKIHHHHHHYQPEKHAVVKSDRGDGRLLSTYAIVHEMLKDTHPQYAYRSGMSAQEFTQWQDGVRAAMVEIMKFPEIKRQPSPVCVKTEKKEGYILEKWEFYPFPKSVSTFLVLKPEHLKGAVPGVLCIPGSGRTKEGLVGEPGICDKLTEDYNNPKVSMALNMVKEGYVAVAVDNAAAGEASDLECYDKGWNYDYDVVSRFLLELGWSWLGYTSYLDMQVLNWMKAQSYIRKDRIVISGFSLGTEPMMVLGVLDKDIYAFVYNDFLCQTQERAVVMTKPDKENRRPFPNSIRHLIPGYWRYFNFPDVVASLAPRPIIFTEGGLDRDFRLVQSAYAASGKPENAEFHHYPKFADKAVRKDVEHLDEGLDSKTYFEAVNVDPPSHYFKNELVIPWLRKVLK | not soluble
20 | MNPKFRSFFSKNAEIFRFSLSENPEIFRFSRHFSMKSFYDIIEIDEIATFDDVKKAYFRFLRKDNRPIYDSWLREQRLRETQGTIGETIELEYGERDVDEYCRKKIPKKNIFSKKKKRFFRTFSNRPNPRHGNLRVLLVLPLSRNPSLLHHHHHPRHPLKKMSSLDESSTKILVLGDSCVGKTSLCHCIAGGGEPPGGGRSFDSTIGATVVMAWHEYRAGTPEQRTELLELWDIGGMVAHRQAAQVFFEGAVGAILVHDLTNKRSEENLATWLTMLDGKPRGAAPKSSKDPAAVALKVDIESCNIPVLIVGTKADLVPHKGPVSYDRYDGLGNANSAISVWKPRNRRKNSKKPMKIGRKLVVEKEKVKKFGRQYLRRGLGFSFSSARWHKEMTEARNVQKSMKMVIFRLFSMGGRN | not soluble
21 | MTDYDSLDDNAFRLMVREWIAANYPQRIRNPPRRLGREETREWYLLLSRQGWLCPGWPREYGGMGLSAGKQLIMMEEMEEYGCARLPDSGVTMLGPLLIRYGDEAQRARFLPRILSGEDIWCQGYSEPNAGSDLASLRTEARLENGEWVINGQKTWTTMGSEANWIFLLVRTERSAKAQHGISFLLVPMDSLGIEVRPILNLELHGEFCEVFFNDVRVPYDSLVGEINQGWSMAKALLGFERIFLGSPKQSTFALQRLERLARHLGLWHDPLFARRFAALSMDLDSHKALYERFAERLRRGESLGPEVSMLKIFQSELFQRISELGLEIAGEDSALLQPFAEDPELHPAGIFIQSRPTTIYGGSNEIQRNILAKSVLGLPG | not soluble
